Assay results taken from patent publication US20250002588A1 (DIAGONAL THERAPEUTICS, published 2025).

Biological target: ALK-1/BMPR-2 receptor pair of the PathHunter U2Os dimerization cells (DiscoverX 93-0962C3) (UniProt P37023 22-503; Q13873 27-1038)
Experiment: cell-based or functional assay

Chain of ALK-1/BMPR-2 receptor pair of the PathHunter U2Os dimerization cells (DiscoverX 93-0962C3) (P37023 22-503, chain 1 of 2): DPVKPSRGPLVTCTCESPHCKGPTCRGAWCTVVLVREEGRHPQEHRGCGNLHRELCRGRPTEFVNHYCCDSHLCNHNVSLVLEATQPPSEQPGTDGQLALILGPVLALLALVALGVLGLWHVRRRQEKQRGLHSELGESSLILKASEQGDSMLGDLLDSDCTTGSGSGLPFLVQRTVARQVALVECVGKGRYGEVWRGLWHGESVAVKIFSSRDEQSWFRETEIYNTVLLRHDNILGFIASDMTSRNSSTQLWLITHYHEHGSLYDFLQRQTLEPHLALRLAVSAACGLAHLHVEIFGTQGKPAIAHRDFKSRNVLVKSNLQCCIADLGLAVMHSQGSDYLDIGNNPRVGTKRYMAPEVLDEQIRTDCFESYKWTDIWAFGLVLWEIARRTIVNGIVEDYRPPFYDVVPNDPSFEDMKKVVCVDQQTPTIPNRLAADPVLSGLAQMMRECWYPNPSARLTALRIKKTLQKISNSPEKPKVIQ
Chain of ALK-1/BMPR-2 receptor pair of the PathHunter U2Os dimerization cells (DiscoverX 93-0962C3) (Q13873 27-1038, chain 2 of 2): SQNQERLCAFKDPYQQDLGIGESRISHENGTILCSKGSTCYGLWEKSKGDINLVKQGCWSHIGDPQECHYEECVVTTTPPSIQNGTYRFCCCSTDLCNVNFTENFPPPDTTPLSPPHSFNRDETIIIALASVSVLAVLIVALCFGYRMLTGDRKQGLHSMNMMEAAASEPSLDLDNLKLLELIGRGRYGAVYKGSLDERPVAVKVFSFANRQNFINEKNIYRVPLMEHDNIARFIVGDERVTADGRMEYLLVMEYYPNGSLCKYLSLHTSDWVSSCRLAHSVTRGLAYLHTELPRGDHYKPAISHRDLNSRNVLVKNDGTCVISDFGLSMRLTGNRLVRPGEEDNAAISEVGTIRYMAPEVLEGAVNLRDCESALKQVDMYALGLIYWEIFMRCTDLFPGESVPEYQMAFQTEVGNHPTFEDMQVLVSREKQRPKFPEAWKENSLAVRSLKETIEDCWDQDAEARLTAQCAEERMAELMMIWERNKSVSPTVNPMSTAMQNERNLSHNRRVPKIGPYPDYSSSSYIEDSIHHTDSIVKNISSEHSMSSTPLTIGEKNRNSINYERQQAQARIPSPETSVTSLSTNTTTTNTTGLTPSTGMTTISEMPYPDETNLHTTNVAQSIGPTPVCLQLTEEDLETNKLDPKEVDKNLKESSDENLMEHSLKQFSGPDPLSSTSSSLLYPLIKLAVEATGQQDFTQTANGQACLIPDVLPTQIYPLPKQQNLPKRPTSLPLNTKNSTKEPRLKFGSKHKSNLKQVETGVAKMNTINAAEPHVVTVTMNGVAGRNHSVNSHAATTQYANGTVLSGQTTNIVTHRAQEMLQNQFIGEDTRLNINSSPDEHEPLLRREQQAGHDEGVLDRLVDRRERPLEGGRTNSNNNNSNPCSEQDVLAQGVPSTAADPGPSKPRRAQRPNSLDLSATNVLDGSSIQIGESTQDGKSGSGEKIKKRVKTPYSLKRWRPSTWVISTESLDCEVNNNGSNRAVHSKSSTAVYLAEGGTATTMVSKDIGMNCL

Row | Binder | % Emax BMP9 | EC50 | Emax (RLU)
1 | DGL277 (bispecific antibody) chain 1: EVQLLESGGGLVQPGGSLRLSCAASGFTFSSYAMSWVRQAPGKGLEWVANINQDGSEKNYVDSMRGRFTISRDNSKNTLYLQMNSLRAEDTAVYYCAREFDYWGQGTLVTVTSSGGGGSGGGGSGGGGSQSVLAQPPSASGTPGQRVTISCSGSSSNIGSNYVYWYQQLPGTAPKLLIYGNNKRPSGVPDRFSGSKSGTSASLAISGLRSEDEADYYCAAWDDSLNGRVFGGGTKLTVLPLAPCPPCPAPEAAGAPSVFLFPPKPKDTLMISRTPEVTCVVVDVSHEDPEVKFNWYVDGVEVHNAKTKPREEQYNSTYRVVSVLTVLHQDWLNGKEYKCKVSNKALPAPIEKTISKAKGQPREPQVYTLPPCRDELTKNQVSLWCLVKGFYPSDIAVEWESNGQPENNYKTTPPVLDSDGSFFLYSKLTVDKSRWQQGNVFSCSVMHEALHNHYTQKSLSLSPGEPEA chain 2: EVQLLESGGGLVQPGGSLRLSCAASGFTFSDYYMTWIRQAPGKGLEWVSSISGGSTYYADSRKGRFTISRDNSENTLYLQMNSLRAEDTAVYYCARDFGVAGWFGQYGMDVWGQGTLVTVSSGGGGSGGGGSGGGGSQSVLTQPPSASGTPGQRVTISCTGSSSNIGAGYDVHWYQQLPGTAPKLLIYRSNQRPSGVPDRFSGSKSGTSASLAISGLRSEDEADYYCSSYAGNYNLVFGGGTKLTVLPLAPCPPCPAPEAAGAPSVFLFPPKPKDTLMISRTPEVTCVVVDVSHEDPEVKFNWYVDGVEVHNAKTKPREEQYNSTYRVVSVLTVLHQDWLNGKEYKCKVSNKALPAPIEKTISKAKGQPREPQVCTLPPSRDELTKNQVSLSCAVKGFYPSDIAVEWESNGQPENNYKTTPPVLDSDGSFFLVSKLTVDKSRWQQGNVFSCSVMHEALHNHYTQKSLSLSPGWSHPQFEK | 51% | 1 nM | 1.35e+06 RLU
2 | DGL274 (bispecific antibody) chain 1: EVQLLESGGGLVQPGGSLRLSCAASGFTFSIYAMSWVRQAPGKGLEWVSAISGSGGSTYYADSVKGRFTISRDNSKNTLYLQMNSLRAEDTAVYYCARDFDYWGQGTLVTVTSSGGGGSGGGGSGGGGSQSVLTQPPSASGTPGQRVTISCSGSSSNIGSNYVYWYQQLPGTAPKLLIYGNINRPSGVPDRFSGSKSGTSASLAISGLRSEDEADYYCAAWDDSLNGRVFGGGTKLTVLPLAPCPPCPAPEAAGAPSVFLFPPKPKDTLMISRTPEVTCVVVDVSHEDPEVKFNWYVDGVEVHNAKTKPREEQYNSTYRVVSVLTVLHQDWLNGKEYKCKVSNKALPAPIEKTISKAKGQPREPQVYTLPPCRDELTKNQVSLWCLVKGFYPSDIAVEWESNGQPENNYKTTPPVLDSDGSFFLYSKLTVDKSRWQQGNVFSCSVMHEALHNHYTQKSLSLSPGEPEA chain 2: EVQLLESGGGLVQPGGSLRLSCAASGFTFSNAWMNWVRQAPGKGLEWVSSISSSSSYIYYADSVKGRFTISRDNSKNTLYLQMNSLRAEDTAVYYCARAVAAGGMFWGLDQWGQGTLVTVTSSGGGGSGGGGSGGGGSQSVLTQPPSASGTPGQRVTISCSGSRSNIGSNSVHWYQQLPGTAPKLLIYGNSNRPSGVPDRFSGSKSGTSASLAISGLRSEDEADYYCQSYDSSLNDHVVFGGGTKLTVLPLAPCPPCPAPEAAGAPSVFLFPPKPKDTLMISRTPEVTCVVVDVSHEDPEVKFNWYVDGVEVHNAKTKPREEQYNSTYRVVSVLTVLHQDWLNGKEYKCKVSNKALPAPIEKTISKAKGQPREPQVCTLPPSRDELTKNQVSLSCAVKGFYPSDIAVEWESNGQPENNYKTTPPVLDSDGSFFLVSKLTVDKSRWQQGNVFSCSVMHEALHNHYTQKSLSLSPGWSHPQFEK | 47% | 1.7 nM | 1.25e+06 RLU
3 | DGL278 (bispecific antibody, human IgG1, lambda) heavy: not shown light: not shown EVQLLESGGGLVQPGGSLRLSCAASGFTFSIYAMSWVRQAPGKGLEWVSAISGSGGSTYYADSVKGRFTISRDNSKNTLYLQMNSLRAEDTAVYYCARDFDYWGQGTLVTVTSSGGGGSGGGGSGGGGSQSVLTQPPSASGTPGQRVTISCSGSSSNIGSNYVYWYQQLPGTAPKLLIYGNINRPSGVPDRFSGSKSGTSASLAISGLRSEDEADYYCAAWDDSLNGRVFGGGTKLTVLDKTHTCPPCPAPEAAGAPSVFLFPPKPKDTLMISRTPEVTCVVVDVSHEDPEVKFNWYVDGVEVHNAKTKPREEQYNSTYRVVSVLTVLHQDWLNGKEYKCKVSNKALPAPIEKTISKAKGQPREPQVCTLPPSRDELTKNQVSLSCAVKGFYPSDIAVEWESNGQPENNYKTTPPVLDSDGSFFLVSKLTVDKSRWQQGNVFSCSVMHEALHNHYTQKSLSLSPGKWSHPQFEK | 26% | 14 nM | 684000 RLU
4 | DGL281 (bispecific antibody, human IgG1, lambda) heavy: not shown light: not shown EVQLLESGGGLVQPGGSLRLSCAASGFTFSDYYMTWIRQAPGKGLEWVSSISGGSTYYADSRKGRFTISRDNSENTLYLQMNSLRAEDTAVYYCARDFGVAGWFGQYGMDVWGQGTLVTVSSGGGGSGGGGSGGGGSQSVLTQPPSASGTPGQRVTISCTGSSSNIGAGYDVHWYQQLPGTAPKLLIYRSNQRPSGVPDRFSGSKSGTSASLAISGLRSEDEADYYCSSYAGNYNLVFGGGTKLTVLDKTHTCPPCPAPEAAGAPSVFLFPPKPKDTLMISRTPEVTCVVVDVSHEDPEVKFNWYVDGVEVHNAKTKPREEQYNSTYRVVSVLTVLHQDWLNGKEYKCKVSNKALPAPIEKTISKAKGQPREPQVCTLPPSRDELTKNQVSLSCAVKGFYPSDIAVEWESNGQPENNYKTTPPVLDSDGSFFLVSKLTVDKSRWQQGNVFSCSVMHEALHNHYTQKSLSLSPGKWSHPQFEK | 42% | 330 nM | 1.11e+06 RLU
5 | DGL276 (bispecific antibody) chain 1: EVQLLESGGGLVQPGGSLRLSCAASGFTFSSYAMSWVRQAPGKGLEWVANINQDGSEKNYVDSMRGRFTISRDNSKNTLYLQMNSLRAEDTAVYYCAREFDYWGQGTLVTVTSSGGGGSGGGGSGGGGSQSVLAQPPSASGTPGQRVTISCSGSSSNIGSNYVYWYQQLPGTAPKLLIYGNNKRPSGVPDRFSGSKSGTSASLAISGLRSEDEADYYCAAWDDSLNGRVFGGGTKLTVLCPPCPAPEAAGAPSVFLFPPKPKDTLMISRTPEVTCVVVDVSHEDPEVKFNWYVDGVEVHNAKTKPREEQYNSTYRVVSVLTVLHQDWLNGKEYKCKVSNKALPAPIEKTISKAKGQPREPQVYTLPPCRDELTKNQVSLWCLVKGFYPSDIAVEWESNGQPENNYKTTPPVLDSDGSFFLYSKLTVDKSRWQQGNVFSCSVMHEALHNHYTQKSLSLSPGEPEA chain 2: EVQLLESGGGLVQPGGSLRLSCAASGFTFSDYYMTWIRQAPGKGLEWVSSISGGSTYYADSRKGRFTISRDNSENTLYLQMNSLRAEDTAVYYCARDFGVAGWFGQYGMDVWGQGTLVTVSSGGGGSGGGGSGGGGSQSVLTQPPSASGTPGQRVTISCTGSSSNIGAGYDVHWYQQLPGTAPKLLIYRSNQRPSGVPDRFSGSKSGTSASLAISGLRSEDEADYYCSSYAGNYNLVFGGGTKLTVLCPPCPAPEAAGAPSVFLFPPKPKDTLMISRTPEVTCVVVDVSHEDPEVKFNWYVDGVEVHNAKTKPREEQYNSTYRVVSVLTVLHQDWLNGKEYKCKVSNKALPAPIEKTISKAKGQPREPQVCTLPPSRDELTKNQVSLSCAVKGFYPSDIAVEWESNGQPENNYKTTPPVLDSDGSFFLVSKLTVDKSRWQQGNVFSCSVMHEALHNHYTQKSLSLSPGWSHPQFEK | 43% | 1.2 nM | 1.14e+06 RLU
6 | DGL273 (bispecific antibody) chain 1: EVQLLESGGGLVQPGGSLRLSCAASGFTFSIYAMSWVRQAPGKGLEWVSAISGSGGSTYYADSVKGRFTISRDNSKNTLYLQMNSLRAEDTAVYYCARDFDYWGQGTLVTVTSSGGGGSGGGGSGGGGSQSVLTQPPSASGTPGQRVTISCSGSSSNIGSNYVYWYQQLPGTAPKLLIYGNINRPSGVPDRFSGSKSGTSASLAISGLRSEDEADYYCAAWDDSLNGRVFGGGTKLTVLCPPCPAPEAAGAPSVFLFPPKPKDTLMISRTPEVTCVVVDVSHEDPEVKFNWYVDGVEVHNAKTKPREEQYNSTYRVVSVLTVLHQDWLNGKEYKCKVSNKALPAPIEKTISKAKGQPREPQVYTLPPCRDELTKNQVSLWCLVKGFYPSDIAVEWESNGQPENNYKTTPPVLDSDGSFFLYSKLTVDKSRWQQGNVFSCSVMHEALHNHYTQKSLSLSPGEPEA chain 2: EVQLLESGGGLVQPGGSLRLSCAASGFTFSNAWMNWVRQAPGKGLEWVSSISSSSSYIYYADSVKGRFTISRDNSKNTLYLQMNSLRAEDTAVYYCARAVAAGGMFWGLDQWGQGTLVTVTSSGGGGSGGGGSGGGGSQSVLTQPPSASGTPGQRVTISCSGSRSNIGSNSVHWYQQLPGTAPKLLIYGNSNRPSGVPDRFSGSKSGTSASLAISGLRSEDEADYYCQSYDSSLNDHVVFGGGTKLTVLCPPCPAPEAAGAPSVFLFPPKPKDTLMISRTPEVTCVVVDVSHEDPEVKFNWYVDGVEVHNAKTKPREEQYNSTYRVVSVLTVLHQDWLNGKEYKCKVSNKALPAPIEKTISKAKGQPREPQVCTLPPSRDELTKNQVSLSCAVKGFYPSDIAVEWESNGQPENNYKTTPPVLDSDGSFFLVSKLTVDKSRWQQGNVFSCSVMHEALHNHYTQKSLSLSPGWSHPQFEK | 46% | 4.2 nM | 1.22e+06 RLU
7 | DGL275 (bispecific antibody) chain 1: not shown chain 2: EVQLLESGGGLVQPGGSLRLSCAASGFTFSDYYMTWIRQAPGKGLEWVSSISGGSTYYADSRKGRFTISRDNSENTLYLQMNSLRAEDTAVYYCARDFGVAGWFGQYGMDVWGQGTLVTVSSGGGGSGGGGSGGGGSQSVLTQPPSASGTPGQRVTISCTGSSSNIGAGYDVHWYQQLPGTAPKLLIYRSNQRPSGVPDRFSGSKSGTSASLAISGLRSEDEADYYCSSYAGNYNLVFGGGTKLTVLDKTHTCPPCPAPEAAGAPSVFLFPPKPKDTLMISRTPEVTCVVVDVSHEDPEVKFNWYVDGVEVHNAKTKPREEQYNSTYRVVSVLTVLHQDWLNGKEYKCKVSNKALPAPIEKTISKAKGQPREPQVCTLPPSRDELTKNQVSLSCAVKGFYPSDIAVEWESNGQPENNYKTTPPVLDSDGSFFLVSKLTVDKSRWQQGNVFSCSVMHEALHNHYTQKSLSLSPGWSHPQFEK | 48% | 0.9 nM | 1.28e+06 RLU
